Assay results from the supplement of paper PMC9732359.
± gives the uncertainty stated by the source.

Experiment: protein stability index of a GFP-peptide fusion (yeast GPS) (PSI 1-4); higher = more stable; sorted into four equal gates, so the index is relative within each strain
Method in brief: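 Plasmids in a pooled yeast library fused tiled 17-residue yeast protein peptides downstream of GFP and also expressed Cherry. Mid-log cultures grown without leucine were sorted into four equal gates by GFP/Cherry fluorescence ratio. Each gate's plasmids were PCR-amplified and Illumina-sequenced, and reads were matched to strains by barcodes. The protein stability index is derived by multiplying each gate's read frequency by its gate number and summing the results.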

## TPSTETAASVFKELCYE [PRE3]
doa10∆
  protein stability index: 1.92 ± 0.048
pdr5∆
  protein stability index: 2.1 ± 0.052
san1∆
  protein stability index: 2.29 ± 0.062
ubr1∆
  protein stability index: 1.84 ± 0.038

## SEHFLYLAKELNLTGPK [RPN1]
doa10∆
  protein stability index: 2.98 ± 0.13
pdr5∆
  protein stability index: 2.81 ± 0.15
san1∆
  protein stability index: 2.35 ± 0.19
ubr1∆
  protein stability index: 2.98 ± 0.29

## EKKPAAKKTSTSTDGKK [HTB1]
doa10∆
  protein stability index: 3.33 ± 0.21
pdr5∆
  protein stability index: 3.07 ± 0.11
san1∆
  protein stability index: 2.85 ± 0.18
ubr1∆
  protein stability index: 3.65 ± 0.25

## ENEFVVLLDARDIEKIT [CDC53]
pdr5∆
  protein stability index: 2.98 ± 0.17
ubr1∆
  protein stability index: 3.08 ± 0.14

## LNSNIRAGVTIPSIPNP [SNF5]
doa10∆
  protein stability index: 2.57 ± 0.075
pdr5∆
  protein stability index: 2.72 ± 0.062
san1∆
  protein stability index: 2.5 ± 0.062
ubr1∆
  protein stability index: 2.72 ± 0.049

## FETFLVDVNNKFIALCE [SIN4]
doa10∆
  protein stability index: 2.94 ± 0.062
pdr5∆
  protein stability index: 3.05 ± 0.049
san1∆
  protein stability index: 3.09 ± 0.045
ubr1∆
  protein stability index: 3.1 ± 0.059

## ISHDDLQAVAVAVSTKK [FAS2]
doa10∆
  protein stability index: 1.47 ± 0.29
pdr5∆
  protein stability index: 1.48 ± 0.099
san1∆
  protein stability index: 1.19 ± 0.12
ubr1∆
  protein stability index: 1.32 ± 0.23

## LIAIVSKLLQTTLKLSP [NUT1]
doa10∆
  protein stability index: 2.19 ± 0.042
pdr5∆
  protein stability index: 1.39 ± 0.063
san1∆
  protein stability index: 1.31 ± 0.11
ubr1∆
  protein stability index: 1.21 ± 0.066

## QRYQDLSQQQKDAQKKD [YIL149C/MLP2]
doa10∆
  protein stability index: 3.09 ± 0.08
pdr5∆
  protein stability index: 3.08 ± 0.062
san1∆
  protein stability index: 2.79 ± 0.071
ubr1∆
  protein stability index: 2.94 ± 0.046

## MLLGTDLCSLKPYVDRF [DIS3]
doa10∆
  protein stability index: 2.62 ± 0.06
pdr5∆
  protein stability index: 2.68 ± 0.066
san1∆
  protein stability index: 2.66 ± 0.067
ubr1∆
  protein stability index: 2.92 ± 0.052

## FGYPETIANSIILHFAN [YMR153W/NUP53]
doa10∆
  protein stability index: 2.05 ± 0.062
pdr5∆
  protein stability index: 2.23 ± 0.067
san1∆
  protein stability index: 1.88 ± 0.09
ubr1∆
  protein stability index: 2.15 ± 0.066

## RILKNKAEYLKNCPITQ [RPC40]
doa10∆
  protein stability index: 2.96 ± 0.052
pdr5∆
  protein stability index: 3.12 ± 0.048
san1∆
  protein stability index: 3.02 ± 0.04
ubr1∆
  protein stability index: 2.83 ± 0.037

## SKEWFQLDDEDFDLLNK [FAS1]
doa10∆
  protein stability index: 3.03 ± 0.11
pdr5∆
  protein stability index: 3.31 ± 0.1
san1∆
  protein stability index: 3.28 ± 0.084
ubr1∆
  protein stability index: 3.06 ± 0.08

## GRPQRKMMSFQANPTEE [RPB5]
pdr5∆
  protein stability index: 3.2 ± 0.17
san1∆
  protein stability index: 3.44 ± 0.094
ubr1∆
  protein stability index: 3.53 ± 0.19

## VPSFLRPDITMYCRPAP [GRR1]
doa10∆
  protein stability index: 2.12 ± 0.053
pdr5∆
  protein stability index: 2.39 ± 0.045
san1∆
  protein stability index: 2.1 ± 0.057
ubr1∆
  protein stability index: 2.38 ± 0.051

## EQFKMVSMITDHNALPQ [POP1]
doa10∆
  protein stability index: 3.04 ± 0.18
pdr5∆
  protein stability index: 3.05 ± 0.11
san1∆
  protein stability index: 2.28 ± 0.27
ubr1∆
  protein stability index: 2.85 ± 0.13

## VPVIVKARFVSKLAEEK [RPL28]
doa10∆
  protein stability index: 2.71 ± 0.024
pdr5∆
  protein stability index: 2.832 ± 0.024
san1∆
  protein stability index: 2.786 ± 0.018
ubr1∆
  protein stability index: 2.861 ± 0.02

## VGSENVECTISILRKSS [SNF12]
doa10∆
  protein stability index: 1.89 ± 0.042
pdr5∆
  protein stability index: 2.23 ± 0.044
san1∆
  protein stability index: 2.43 ± 0.044
ubr1∆
  protein stability index: 2.11 ± 0.036

## TIYYVDSDGTRLKGDIF [PRE2]
doa10∆
  protein stability index: 3.24 ± 0.067
pdr5∆
  protein stability index: 3.24 ± 0.065
san1∆
  protein stability index: 2.97 ± 0.096
ubr1∆
  protein stability index: 3.16 ± 0.057

## LTFQPQQQTNALNGIDI [GRR1]
doa10∆
  protein stability index: 2.84 ± 0.067
pdr5∆
  protein stability index: 3.07 ± 0.075
san1∆
  protein stability index: 3.02 ± 0.082
ubr1∆
  protein stability index: 3.1 ± 0.056

## QREDKLKSHYYQTCKNS [SMC2]
doa10∆
  protein stability index: 1.24 ± 0.073
pdr5∆
  protein stability index: 1.25 ± 0.057
san1∆
  protein stability index: 1.63 ± 0.071
ubr1∆
  protein stability index: 1.42 ± 0.054

## QALDISKKGKPTVNKKP [SRP72]
doa10∆
  protein stability index: 2.59 ± 0.16
pdr5∆
  protein stability index: 2.82 ± 0.1
san1∆
  protein stability index: 2.36 ± 0.16
ubr1∆
  protein stability index: 2.3 ± 0.14

## IALRNGQSSVKHEDFVE [RPT5]
doa10∆
  protein stability index: 2.89 ± 0.19
san1∆
  protein stability index: 3.23 ± 0.14
ubr1∆
  protein stability index: 3.41 ± 0.16

## KNGKIYLKHNSIAEEIP [RET1]
doa10∆
  protein stability index: 2.97 ± 0.059
pdr5∆
  protein stability index: 2.81 ± 0.05
san1∆
  protein stability index: 2.61 ± 0.074
ubr1∆
  protein stability index: 2.52 ± 0.037

## LGYPPISLVDDIINAVN [MTW1]
doa10∆
  protein stability index: 2.46 ± 0.076
pdr5∆
  protein stability index: 2.14 ± 0.065
san1∆
  protein stability index: 2.44 ± 0.063
ubr1∆
  protein stability index: 1.94 ± 0.069

## SQSLTSILVIVQKILPL [SWI1]
doa10∆
  protein stability index: 1.38 ± 0.041
pdr5∆
  protein stability index: 1.39 ± 0.035
san1∆
  protein stability index: 1.48 ± 0.066
ubr1∆
  protein stability index: 1.61 ± 0.033

## RKLEISSRFKHRQEIFK [GAL11]
doa10∆
  protein stability index: 2.76 ± 0.064
pdr5∆
  protein stability index: 3.1 ± 0.061
san1∆
  protein stability index: 3.01 ± 0.059
ubr1∆
  protein stability index: 3.09 ± 0.051

## EKACQVLKYMLLSKIML [RPN6]
doa10∆
  protein stability index: 1.76 ± 0.049
pdr5∆
  protein stability index: 1.49 ± 0.048
san1∆
  protein stability index: 1.13 ± 0.1
ubr1∆
  protein stability index: 1.41 ± 0.031

## GTISKLENKENGLLNEI [SMC2]
doa10∆
  protein stability index: 3.45 ± 0.29
pdr5∆
  protein stability index: 3.28 ± 0.087
san1∆
  protein stability index: 3.36 ± 0.1
ubr1∆
  protein stability index: 3.35 ± 0.17

## QKYVGEGARMVRELFEM [RPT1]
ubr1∆
  protein stability index: 2.92 ± 0.24

## LRRGNYAQRIGSGAPVY [HTA1]
doa10∆
  protein stability index: 2.19 ± 0.21
pdr5∆
  protein stability index: 2.86 ± 0.17
san1∆
  protein stability index: 2.4 ± 0.26

## LYEKDIVPSMTHLEIEP [RET1]
doa10∆
  protein stability index: 2.68 ± 0.098
pdr5∆
  protein stability index: 2.65 ± 0.089
san1∆
  protein stability index: 2.73 ± 0.09
ubr1∆
  protein stability index: 2.85 ± 0.053

## SFELKEEDISDLWNNFG [RRP6]
doa10∆
  protein stability index: 2.85 ± 0.1
pdr5∆
  protein stability index: 3.1 ± 0.12
san1∆
  protein stability index: 2.47 ± 0.091
ubr1∆
  protein stability index: 3.26 ± 0.073

## SSDDRVKVLAATNRVDV [RPT5]
doa10∆
  protein stability index: 2.66 ± 0.18
pdr5∆
  protein stability index: 2.95 ± 0.26
san1∆
  protein stability index: 2.88 ± 0.15

## DMVKLDINPPLVFILAV [RRP42]
doa10∆
  protein stability index: 2.69 ± 0.068
pdr5∆
  protein stability index: 2.3 ± 0.043
san1∆
  protein stability index: 2.2 ± 0.07
ubr1∆
  protein stability index: 2.19 ± 0.035

## RDHKSYSQSPPRSPGRS [SMC4]
doa10∆
  protein stability index: 2.59 ± 0.092
pdr5∆
  protein stability index: 2.98 ± 0.081
san1∆
  protein stability index: 3.01 ± 0.17
ubr1∆
  protein stability index: 2.87 ± 0.052

## LKAQITSLKCLVNRKPI [SNF2]
doa10∆
  protein stability index: 2.05 ± 0.045
pdr5∆
  protein stability index: 1.77 ± 0.038
san1∆
  protein stability index: 1.6 ± 0.062
ubr1∆
  protein stability index: 1.61 ± 0.032

## TNSHLPAGKQVEISLVN [FAS1]
doa10∆
  protein stability index: 3.48 ± 0.14
pdr5∆
  protein stability index: 3.37 ± 0.13
san1∆
  protein stability index: 3.36 ± 0.069
ubr1∆
  protein stability index: 3.12 ± 0.084

## WDLLQSGSQNISEFDSF [RPN12]
doa10∆
  protein stability index: 3.38 ± 0.16
pdr5∆
  protein stability index: 3.14 ± 0.09
san1∆
  protein stability index: 3.05 ± 0.12
ubr1∆
  protein stability index: 3.22 ± 0.067

## TCILHGPVAAQFTKVID [FAS1]
doa10∆
  protein stability index: 1.73 ± 0.064
pdr5∆
  protein stability index: 2.25 ± 0.048
san1∆
  protein stability index: 1.94 ± 0.081
ubr1∆
  protein stability index: 1.98 ± 0.047

## VVKASELDQFWQEYSSV [SRP14]
doa10∆
  protein stability index: 3.04 ± 0.061
pdr5∆
  protein stability index: 2.9 ± 0.071
san1∆
  protein stability index: 3.14 ± 0.072
ubr1∆
  protein stability index: 3.27 ± 0.048

## NNHNMRNNSNNKTSNNN [SWI1]
doa10∆
  protein stability index: 2.56 ± 0.088
pdr5∆
  protein stability index: 2.55 ± 0.068
san1∆
  protein stability index: 1.85 ± 0.093
ubr1∆
  protein stability index: 2.6 ± 0.049

## TDLMSIVQELLDKNLIK [RPC34]
doa10∆
  protein stability index: 3.39 ± 0.21
pdr5∆
  protein stability index: 2.74 ± 0.17
ubr1∆
  protein stability index: 3.15 ± 0.14

## GFVRNSFFSGLSPPEFL [RPO31]
doa10∆
  protein stability index: 2.99 ± 0.077
pdr5∆
  protein stability index: 2.95 ± 0.079
san1∆
  protein stability index: 3.11 ± 0.08
ubr1∆
  protein stability index: 3.13 ± 0.052

## SSATIVLCLTRSSYMLE [YCG1]
doa10∆
  protein stability index: 1.76 ± 0.035
pdr5∆
  protein stability index: 2.1 ± 0.038
san1∆
  protein stability index: 1.91 ± 0.048
ubr1∆
  protein stability index: 2.23 ± 0.032

## EFDRRILKKSLMTSHTK [RTT102]
doa10∆
  protein stability index: 2.94 ± 0.17
pdr5∆
  protein stability index: 2.98 ± 0.092
san1∆
  protein stability index: 2.4 ± 0.15
ubr1∆
  protein stability index: 3.29 ± 0.093

## PGAKPLQVGDVVSTTAV [FAS1]
doa10∆
  protein stability index: 2.51 ± 0.075
pdr5∆
  protein stability index: 2.42 ± 0.086
san1∆
  protein stability index: 2.48 ± 0.077
ubr1∆
  protein stability index: 2.66 ± 0.065

## LVVRFTNKDIICQIISS [RPL5]
doa10∆
  protein stability index: 1.62 ± 0.055
pdr5∆
  protein stability index: 1.79 ± 0.062
san1∆
  protein stability index: 1.25 ± 0.18
ubr1∆
  protein stability index: 1.67 ± 0.051

## EEFAYVDPARRQILFKY [MED6]
doa10∆
  protein stability index: 2.57 ± 0.085
pdr5∆
  protein stability index: 2.19 ± 0.061
san1∆
  protein stability index: 2.02 ± 0.09
ubr1∆
  protein stability index: 2.06 ± 0.053

## LMTHITTDDEEEPIKKL [RET1]
doa10∆
  protein stability index: 3.42 ± 0.27
pdr5∆
  protein stability index: 3.41 ± 0.28
ubr1∆
  protein stability index: 3.49 ± 0.17

## NDQALIKVLLRQNRRPE [RET1]
doa10∆
  protein stability index: 1.83 ± 0.087
pdr5∆
  protein stability index: 2.45 ± 0.094
san1∆
  protein stability index: 3.01 ± 0.079
ubr1∆
  protein stability index: 2.77 ± 0.059

## SKLSLSRTDAVRCKDCG [RPC10]
doa10∆
  protein stability index: 1.77 ± 0.076
pdr5∆
  protein stability index: 1.9 ± 0.064
san1∆
  protein stability index: 1.85 ± 0.13
ubr1∆
  protein stability index: 1.9 ± 0.076
